Experimental findings from patent publication US20080020994 are described below.

The test system of this data set is purified wild-type Gα13 pre-loaded with GDP.
Chain of purified wild-type Gα13 pre-loaded with GDP (chain, as listed by the source): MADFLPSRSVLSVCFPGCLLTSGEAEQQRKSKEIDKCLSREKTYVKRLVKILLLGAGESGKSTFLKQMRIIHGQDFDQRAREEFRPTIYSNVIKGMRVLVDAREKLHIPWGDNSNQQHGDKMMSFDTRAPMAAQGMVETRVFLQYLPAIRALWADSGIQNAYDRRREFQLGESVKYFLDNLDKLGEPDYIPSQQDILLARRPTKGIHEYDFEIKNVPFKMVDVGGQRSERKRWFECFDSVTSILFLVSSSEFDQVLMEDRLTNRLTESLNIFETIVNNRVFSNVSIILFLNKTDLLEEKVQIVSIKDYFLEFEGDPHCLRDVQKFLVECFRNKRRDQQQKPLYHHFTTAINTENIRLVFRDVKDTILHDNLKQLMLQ

For purified Rac1(GTPγS), the “guanine nucleotide exchange or GTPase activity” value was “No significant changes in these activities were examined”.
